Target: the molecule itself
Experiment: size-exclusion chromatography (Superdex 75)
Method: Gel filtration was performed at 4° C. using the AKTA FPLC system equipped with a Superdex 75 HR 16/60 column (Amersham Biosciences). The buffer used for gel filtration is comprised of 50 mM Tris-Cl (pH 8.0), 300 mM NaCl, 5% Glycerol, 1 mM DTT. Fractions containing the recombinant protein were concentrated using Amicon concentrator (Millipore) to a final concentration of ca. 5 mg/ml as measured using Bradford assay. Concentrated proteins were stored in −80° C. degree after flash-freeze using liquid nitrogen. Mutant proteins were expressed, purified and stored following the same procedure. The molecular weight and oligomeric state of the protein was estimated based on the standard curve generated by using the standard proteins that include albumin, ovalbumin, chemotrypsinogen, RNase A. The final yield of the recombinant protein was 12-15 mg per liter culture for the wild type the mutant enzyme.

B1: tDGC mutant R158A (enzyme)
chain: MGSSHHHHHHSSGLVPRGSHMKELEYMAYHDPLTGLPNRRYFFELGNRYLDLAKREGKKVFVLFVDLAGFKAINDTYGHLSGDEVLKTVSKRILDRVARSDVVARYGGDEFTILLYDMKEEYLKSLLERILSTFREPVRVENKHLSVTPNIGVARFPEDGENLEELLKVADMRMYKAKEMKVPYFSLS
notes: Expressed from pET28b(+) with a (His)6 tag; Found as a monomer in solution; also called R158A mutant; mutant tDGC
binding result: no binding

Reference: US20120040403A1 (NANYANG TECHNOLOGICAL UNIVERSITY, published 2012)
